The record followed here is paper PMC10482915, “Hornerin mediates phosphorylation of the polo-box domain in Plk1 by Chk1 to induce death in mitosis” (Cell Death and Differentiation, 2023).

The experiment deals with T1, His-Plk1 WT (human, UniProt P53350 1-603).
T1 construct: polo-like kinase 1 (Plk1), human; PCR product of the human Plk1 gene cloned into pET-28a; also called recombinant His-Plk1; His6-tagged Plk1 WT; source: E. coli BL21 DE3, purified (Ni2+-NTA-agarose)
Nature of the experiment: pull-down; recombinant Chk1 incubated with recombinant His-Plk1, pulled down with Ni-beads; immunoblotting. Conditions: both partners purified.

T1 sequence (P53350 whole entry): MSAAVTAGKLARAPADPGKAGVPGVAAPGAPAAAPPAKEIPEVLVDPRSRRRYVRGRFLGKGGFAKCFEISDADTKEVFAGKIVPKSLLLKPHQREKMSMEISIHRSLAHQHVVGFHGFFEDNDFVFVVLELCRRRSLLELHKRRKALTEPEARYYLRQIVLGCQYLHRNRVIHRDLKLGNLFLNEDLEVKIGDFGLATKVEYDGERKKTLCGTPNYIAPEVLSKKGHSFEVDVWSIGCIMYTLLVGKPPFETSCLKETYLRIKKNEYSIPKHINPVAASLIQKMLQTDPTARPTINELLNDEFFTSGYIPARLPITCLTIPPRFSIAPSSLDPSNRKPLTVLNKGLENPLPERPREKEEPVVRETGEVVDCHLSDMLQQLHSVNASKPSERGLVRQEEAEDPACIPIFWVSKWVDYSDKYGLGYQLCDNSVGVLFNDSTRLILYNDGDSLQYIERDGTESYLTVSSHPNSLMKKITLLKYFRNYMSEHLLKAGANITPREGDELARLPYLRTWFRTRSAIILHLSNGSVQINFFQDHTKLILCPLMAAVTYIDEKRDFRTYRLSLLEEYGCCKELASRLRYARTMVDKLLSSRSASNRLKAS

B1: recombinant Chk1 (enzyme, human, UniProt O14757 1-476, looked up)
chain: MAVPFVEDWDLVQTLGEGAYGEVQLAVNRVTEEAVAVKIVDMKRAVDCPENIKKEICINKMLNHENVVKFYGHRREGNIQYLFLEYCSGGELFDRIEPDIGMPEPDAQRFFHQLMAGVVYLHGIGITHRDIKPENLLLDERDNLKISDFGLATVFRYNNRERLLNKMCGTLPYVAPELLKRREFHAEPVDVWSCGIVLTAMLAGELPWDQPSDSCQEYSDWKEKKTYLNPWKKIDSAPLALLHKILVENPSARITIPDIKKDRWYNKPLKKGAKRPRVTSGGVSESPSGFSKHIQSNLDFSPVNSASSEENVKYSSSQPEPRTGLSLWDTSPSYIDKLVQGISFSQPTCPDHMLLNSQLLGTPGSSQNPWQRLVKRMTRFFTKLDADKSYQCLKETCEKLGYQWKKSCMNQVTISTTDRRNNKLIFKVNLLEMDDKILVDFRLSKGDGLEFKRHFLKIKGKLIDIVSSQKIWLPAT
notes: checkpoint kinase 1 (Chk1), human recombinant kinase; the SignalChem kinase is named only for the kinase assay; also called human recombinant Chk1 kinase; checkpoint kinase 1; source: bought: SignalChem (named for the kinase assay)
Consider B1, for which the binding result is given as “binds”.
